The values below come from US20180071366A1.

Numbered stars: 1 amine (or outer) side, 2 acyl side, 3 side chain; on linkers, the order of the positions; unused ones are H or OH. Bridge positions count the residues as written; N and C are the ends. Square brackets hold non-standard residues; d marks the D form. * marks the point of attachment. C20 diacid = O=C(O)CCCCCCCCCCCCCCCCCCC(=O)*; γGlu = O=C(O)[C@H](CCC(=O)[*:2])N[*:1]; Hyp = O=C(O)[C@@H]1C[C@@H](O)CN1; NMeI = CC[C@H](C)[C@H](NC)C(=O)O; Aad = N[C@@H](CCCC(=O)O)C(=O)O; Sar = CNCC(=O)O

Test [1] has as its target recombinant human calcitonin receptor (hCT-R) (human), P30988. Description: cell-based or functional assay.
Test [2] has as its target recombinant human amylin 3 receptor (hAMYR3) (human), P30988. The test can be described thus: cell-based or functional assay.

Chain of recombinant human amylin 3 receptor (hAMYR3) (human), P30988 (P30988 25-474, chain 1 of 2): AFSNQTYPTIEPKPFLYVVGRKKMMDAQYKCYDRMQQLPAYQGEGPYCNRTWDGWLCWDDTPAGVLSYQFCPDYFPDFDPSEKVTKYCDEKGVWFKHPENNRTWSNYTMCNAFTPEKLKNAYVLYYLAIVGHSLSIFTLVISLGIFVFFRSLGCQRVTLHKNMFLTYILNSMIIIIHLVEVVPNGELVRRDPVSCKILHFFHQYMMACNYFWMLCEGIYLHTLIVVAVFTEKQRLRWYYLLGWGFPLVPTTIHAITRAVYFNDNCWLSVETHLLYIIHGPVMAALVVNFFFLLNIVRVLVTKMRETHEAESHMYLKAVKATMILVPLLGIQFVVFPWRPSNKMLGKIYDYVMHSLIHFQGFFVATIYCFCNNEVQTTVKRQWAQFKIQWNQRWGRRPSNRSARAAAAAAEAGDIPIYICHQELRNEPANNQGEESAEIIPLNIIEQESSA
Chain of recombinant human amylin 3 receptor (hAMYR3) (human), P30988 (O60896 24-148, chain 2 of 2, further chain): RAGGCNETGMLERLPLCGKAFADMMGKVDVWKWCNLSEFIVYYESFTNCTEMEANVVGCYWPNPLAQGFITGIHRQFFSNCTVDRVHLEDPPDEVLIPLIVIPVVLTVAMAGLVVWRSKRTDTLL
Chain of recombinant human calcitonin receptor (hCT-R) (human), P30988 (P30988 25-474): as the sequence (P30988 25-474, chain 1 of 2) above

B1: Compound 29 (peptide)
peptide: {C20 diacid-γGlu}-RDPTATKATERLA[Aad]FLQRSSF[Sar]A[NMeI]LSSTEVGSNT[Hyp]-NH2
modifications: lactam 2-7
SMILES: CC[C@H](C)[C@@H](C(=O)N[C@@H](CC(C)C)C(=O)N[C@@H](CO)C(=O)N[C@@H](CO)C(=O)N[C@H](C(=O)N[C@@H](CCC(=O)O)C(=O)N[C@H](C(=O)NCC(=O)N[C@@H](CO)C(=O)N[C@@H](CC(N)=O)C(=O)N[C@H](C(=O)N1C[C@H](O)C[C@H]1C(N)=O)[C@@H](C)O)C(C)C)[C@@H](C)O)N(C)C(=O)[C@H](C)NC(=O)CN(C)C(=O)[C@H](Cc1ccccc1)NC(=O)[C@H](CO)NC(=O)[C@H](CO)NC(=O)[C@H](CCCNC(=N)N)NC(=O)[C@H](CCC(N)=O)NC(=O)[C@H](CC(C)C)NC(=O)[C@H](Cc1ccccc1)NC(=O)[C@H](CCCC(=O)O)NC(=O)[C@H](C)NC(=O)[C@H](CC(C)C)NC(=O)[C@H](CCCNC(=N)N)NC(=O)[C@H](CCC(=O)O)NC(=O)[C@@H](NC(=O)[C@H](C)NC(=O)[C@@H]1CCCCNC(=O)C[C@H](NC(=O)[C@H](CCCNC(=N)N)NC(=O)CC[C@H](NC(=O)CCCCCCCCCCCCCCCCCCC(=O)O)C(=O)O)C(=O)N2CCC[C@H]2C(=O)N[C@@H]([C@@H](C)O)C(=O)N[C@@H](C)C(=O)N[C@@H]([C@@H](C)O)C(=O)N1)[C@@H](C)O
For B1, the hCT-R EC50 [nM] (cAMP formation, 1321N1 cells expressing hCT-R) in test [1] came to 1.07 nM. Also, the hAMYR3 EC50 [nM] (cAMP formation, 1321N1 cells expressing hAMYR3) in test [2] was 0.312 nM.

B2: Compound 30 (peptide)
peptide: {C20 diacid-γGlu}-EDGTATKATERLA[Aad]FLQRSSF[Sar]A[NMeI]PSSTEVGSNT[Hyp]-NH2
modifications: lactam 2-7
SMILES: CC[C@H](C)[C@@H](C(=O)N1CCC[C@H]1C(=O)N[C@@H](CO)C(=O)N[C@@H](CO)C(=O)N[C@H](C(=O)N[C@@H](CCC(=O)O)C(=O)N[C@H](C(=O)NCC(=O)N[C@@H](CO)C(=O)N[C@@H](CC(N)=O)C(=O)N[C@H](C(=O)N1C[C@H](O)C[C@H]1C(N)=O)[C@@H](C)O)C(C)C)[C@@H](C)O)N(C)C(=O)[C@H](C)NC(=O)CN(C)C(=O)[C@H](Cc1ccccc1)NC(=O)[C@H](CO)NC(=O)[C@H](CO)NC(=O)[C@H](CCCNC(=N)N)NC(=O)[C@H](CCC(N)=O)NC(=O)[C@H](CC(C)C)NC(=O)[C@H](Cc1ccccc1)NC(=O)[C@H](CCCC(=O)O)NC(=O)[C@H](C)NC(=O)[C@H](CC(C)C)NC(=O)[C@H](CCCNC(=N)N)NC(=O)[C@H](CCC(=O)O)NC(=O)[C@@H](NC(=O)[C@H](C)NC(=O)[C@@H]1CCCCNC(=O)C[C@H](NC(=O)[C@H](CCC(=O)O)NC(=O)CC[C@H](NC(=O)CCCCCCCCCCCCCCCCCCC(=O)O)C(=O)O)C(=O)NCC(=O)N[C@@H]([C@@H](C)O)C(=O)N[C@@H](C)C(=O)N[C@@H]([C@@H](C)O)C(=O)N1)[C@@H](C)O
As to B2, the hCT-R EC50 [nM] (cAMP formation, 1321N1 cells expressing hCT-R) in test [1] was found to be 0.232 nM. Besides, the hAMYR3 EC50 [nM] (cAMP formation, 1321N1 cells expressing hAMYR3) in test [2] was 0.122 nM.
